The assay has as its target T1, human β-amyloid (1-40) peptide (human, UniProt P05067 672-711).
T1 construct: domain: β-amyloid (1-40); Used free in solution, coated on plates, or N- or C-terminally biotinylated, as told under assay; also called Aβ peptide (1-40); Aβ1-40
Kind of assay: SPR (Biacore T100), antibody captured on anti-human IgG, beta amyloid (1-40), 37°C. The procedure:
Anti-human IgG (Biacore BR-1008-39) was coupled to a CM5 biosensor chip by primary amine coupling. The anti-beta amyloid antibodies were captured on this surface. Beta amyloid (1-40) was then passed over at 256, 64, 16, 4 and 1 nM, with a 0 nM (ie buffer alone passed over the captured antibody surface) used for double referencing. […] The data was analysed using the 1:1 model inherent to the T100. The run was carried out at 25° C. and 37° C. using HBS-EP as the running buffer.
From this panel some constructs were also assessed for binding kinetics at physiological temperature.

Substitutions are numbered along the chain they refer to.

T1 sequence (P05067 672-711 limits assumed): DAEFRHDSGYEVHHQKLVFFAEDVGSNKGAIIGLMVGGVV

B1: humanised de-immunised construct H48L17 (antibody, name in Kabat numbering, V domains shown)
VH: QVQLVQSGAEVKEPGASVKVSCKGSGFNIHVYYVHWLRQLPEKGLEWIGRIDPENGETIYTPKFQDKATLTVDTSTDTAYMELSSLRSEDTAVYYCVSSGYWGQGTLVTVSS
VL: DIVMTQSPLSNPVTPGEPASISCRSSKSLLHRNGITYLYWYLQKPGQSPQLLIYQMSHLASGVPDRFSSSGSGTDFTLKISRVEAEDVGVYYCAQNLELWTFGQGTKVEIK
The Kd is the concentration at which binding is half-saturated. Low readings indicate higher affinity, high ones lower affinity. B1 had a Kd of 4.72 nM.

B2: humanised de-immunised construct H49L17 (antibody, name in Kabat numbering, V domains shown)
VH: B1 VH with H30K, V31T
VL: B1 VL
In the case of B2, the Kd was 4.21 nM.

The record behind these values is patent publication US20110014182A1 (published 2011).
